Test results taken from paper PMC7504066.

Tests used:
[1] = target: Plasmodium vivax PLP synthase domain (Pdx1) (Plasmodium vivax); assay: SAXS; batch SAXS at EMBL beamline P12 (PETRA III), 293 K; Pdx1 and SEC-purified Pdx complex (mixed 1:1, overnight) at 1, 2 and 5 mg mL^-1; ab initio (GASBOR, P6) and rigid body (SASREF) models, SAXSMoW mass
[2] = target: Plasmodium vivax PLP synthase domain (Pdx1) (Plasmodium vivax); assay: dynamic light scattering; purified Pdx1 alone and SEC-purified Pdx complex in a quartz cuvette, Spectroscatter-301, 660 nm laser, 90° angle
[3] = target: Plasmodium vivax PLP synthase domain (Pdx1) (Plasmodium vivax); assay: negative-stain electron microscopy; Pdx1 alone, 25-30 µg mL^-1 in 20 mM Tris pH 8.0, 200 mM NaCl, 5 mM MTG, 2% uranyl acetate
[4] = target: Plasmodium vivax PLP synthase domain (Pdx1) (Plasmodium vivax); assay: SEC; each protein alone on a Superdex 200 26/60 column; peak fractions evaluated by PAGE
[5] = target: Plasmodium vivax PLP synthase domain (Pdx1) (Plasmodium vivax); assay: native gel or EMSA; native PAGE of the purified proteins and of the SEC-purified Pdx complex

Plasmodium vivax glutaminase domain (Pdx2) (enzyme)
12: stoichiometry N (Pdx2 per Pdx1 dodecamer (12:12)) [1]

Plasmodium vivax PLP synthase domain (Pdx1) (enzyme)
12: stoichiometry N [1] | stoichiometry N [2] | stoichiometry N [3] | stoichiometry N [4] | stoichiometry N [5]
